Key:
Test in all cases: purified protein
[1] = system: O=C(CO)[C@@H](O)[C@H](O)C(=O)CO; assay type: biochemical, Gluconobacter oxydans; details: NADPH co-substrate, pH 7, 35 °C (optimum)
purified protein [2] = substrate: O=C(CO)[C@@H](O)[C@H](O)C(=O)CO; assay type: biochemical, Clostridium pasteurianum; details: NADPH co-substrate, pH 6, 40 °C (optimum)
purified protein [3] = substrate: NC(=O)C1=CN([C@@H]2O[C@H](COP(=O)(O)OP(=O)(O)OC[C@H]3O[C@@H](n4cnc5c(N)ncnc54)[C@H](OP(=O)(O)O)[C@@H]3O)[C@@H](O)[C@H]2O)C=CC1; assay type: biochemical, Clostridium pasteurianum; details: 5-KF co-substrate, pH 6, 40 °C (optimum), varied: cofactor
purified protein [4] = substrate: O=C(CO)[C@@H](O)[C@H](O)C(=O)CO; details: NADPH co-substrate, pH 7.0, 30 °C, potassium phosphate
purified protein [5] = substrate: NC(=O)C1=CN([C@@H]2O[C@H](COP(=O)(O)OP(=O)(O)OC[C@H]3O[C@@H](n4cnc5c(N)ncnc54)[C@H](OP(=O)(O)O)[C@@H]3O)[C@@H](O)[C@H]2O)C=CC1; details: 5-KF co-substrate, pH 7.0, 30 °C, varied: cofactor
purified protein [6] = substrate: O=C(CO)[C@@H](O)[C@H](O)C(=O)CO; assay type: biochemical, Gluconobacter oxydans; details: NADPH co-substrate, pH 7, 30 °C (optimum)

Molecule: GOX0644 (Gluconobacter oxydans 621H)
- Km [1]: 4000 ± 800 µM
- kcat [1]: 18.9 ± 1.2 s⁻¹

B1: CP-AKR (Clostridium pasteurianum DSM 525 = ATCC 6013) (protein)
chain: MVKSIKDVITLNNGVEIPQHGFGVYLITDEEKAYKAINKALEVGYRAFDTAQFYENEPLLGKILNESSLSRDELFITTKVANYNQGYDSTLSTVEQSLKDLRVDQLDLLLIHWPSKKRFFETWRAMEKLYNEKLVKAIGVSNYEIHHLEELISNSDIKPVIDQVESHPYLIQQELKDYVDKNNIAFQAWSPLGRGAVLKDPIIKIIAEQHNKSIAQVIIRWHLQKGNIVIPKSITPSRIEENADVYDFALTEEEMKIIDALNRAERTGDDPDSIYFQM
- Km (purified protein [2]): 1300 ± 200 µM
- kcat (purified protein [2]): 29.3 ± 4.3 s⁻¹
- Km (purified protein [3]): 12.4 ± 3.8 µM

B2: TM-KFR (Tatumella morbirosei) (protein)
chain: AEQQNFLSELTGSFSSPCNENPTVAMMEEAYRHQGINARYINCDVGKQQLEMAVAGAKAMGWRGFNCSIPNKQAILSYIDEVGTSAKVIGAVNCVIIREGKLTGENTDGKGFVEALKQQIDPEGKKLALLGAGGAARAIAVESALAGVSEITIINRDKAKGEALAELINANTDATATYVEWSSGLKVDKNFDILVNATSVGLDDAEAMPDIDTDSLSEELFVADVIPNPPQTALLRAASDKGCRTLNGLNMLVNQGALNLAYWFDTTADKAPMRKVLQTLFTG
- Km (purified protein [4]): 6400 ± 600 µM
- kcat (purified protein [4]): 913.9 ± 85.2 s⁻¹
- Km (purified protein [5]): 20.4 ± 11.5 µM

B3: GOX1432 (Gluconobacter oxydans 621H) (protein)
chain: MITRETLKSLPANVQAPPYDIDGIKPGIVHFGVGNFFRAHEAFYVEQILEHAPDWAIVGVGLTGSDRSKKKAEEFKAQDCLYSLTETAPSGKSTVRVMGALRDYLLAPADPEAVLKHLVDPAIRIVSMTITEGGYNINETTGAFDLENAAVKADLQNPEKPSTVFGYVVEALRRRRDAGGKAFTVMSCDNLRHNGNVARKAFLGYAKARDPELAKWIEENATFPNGMVDRITPTVSAEIAKKLNAASGLDDDLPLVAEDFHQWVLEDRFANGRPPLEKAGVQLVDDVTDWEHVKIRMLNAGHITLCFPGILVGYENVDDAIEDKDLRGNLENYLNKDVIPTLKAPPGMTLEGYRDSVISRFSNKAMSDQTLRIASDGCSKIQVFWTETVRRAIECKRDLSRIAFGIASYLEMLRGRDEKGGTYESSEPTYGEAQKKLAKADDFESALKLPAFDGWRDLDTSELDQKVIALRKVIREKGVKAAIPA
- Km (purified protein [6]): 42000 ± 5400 µM
- kcat (purified protein [6]): 214.6 ± 7.5 s⁻¹

Source: paper PMC7954740, “Degradation of the low-calorie sugar substitute 5-ketofructose by different bacteria” (Applied Microbiology and Biotechnology, 2021)
